Assay results taken from patent publication US20180251570A1 (Bayer, published 2018).
Blank lines part the entries; values can stand above or below the binder they belong to.

Target: T1, human tissue factor pathway inhibitor (TFPI) (human, UniProt P10646 29-304, limits assumed)
T1 construct: also called human TFPI (American Diagnostica)
T1 sequence (looked up): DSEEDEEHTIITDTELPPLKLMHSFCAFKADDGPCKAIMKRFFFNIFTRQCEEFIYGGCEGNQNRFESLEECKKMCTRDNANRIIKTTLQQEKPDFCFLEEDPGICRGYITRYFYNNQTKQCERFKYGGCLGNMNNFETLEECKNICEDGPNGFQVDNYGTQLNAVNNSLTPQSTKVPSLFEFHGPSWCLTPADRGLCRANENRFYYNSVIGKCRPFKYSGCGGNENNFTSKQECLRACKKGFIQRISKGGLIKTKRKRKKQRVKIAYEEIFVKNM
Assay: BIACORE kinetics, CM4 chip with low density of amine-coupled human TFPI, antibody injected
Description: A CM4 sensor chip was immobilized with a low density of human TFPI using an amine coupling kit (GE HealthCare). Kinetic assays of parental IgG and IgG-linker1 were conducted using different concentration of the antibodies, followed by regeneration with pH 1.5 glycine buffer. The parental IgG and IgG-linker1 antibodies at a concentration of 1 μg were digested with 1 unit of biotinylated thrombin (Novagen) for 1 hr at 37° C. The antibodies with or without digestion were injected to a BIACORE™ system for TFPI-binding analysis.

kon: 1.54e+06 M⁻¹ s⁻¹
B1: parental IgG (parental anti-TFPI antibody) (antibody)
heavy: EVQLVESGGGLVQPGGSLRLSCAASGFTFSSYGMDWVRQAPGKGLEWVSSIRGSRGSTYYADSVKGRFTISRDNSKNTLYLQMNSLRAEDTAVYYCARLYRYWFDYWGQGTLVTVSSASTKGPSVFPLAPCSRSTSESTAALGCLVKDYFPEPVTVSWNSGALTSGVHTFPAVLQSSGLYSLSSVVTVPSSNFGTQTYTCNVDHKPSNTKVDKTVERKCCVECPPCPAPPVAGPSVFLFPPKPKDTLMISRTPEVTCVVVDVSHEDPEVQFNWYVDGVEVHNAKTKPREEQFNSTFRVVSVLTVVHQDWLNGKEYKCKVSNKGLPAPIEKTISKTKGQPREPQVYTLPPSREEMTKNQVSLTCLVKGFYPSDIAVEWESNGQPENNYKTTPPMLDSDGSFFLYSKLTVDKSRWQQGNVFSCSVMHEALHNHYTQKSLSLSPG
light: SYELTQPPSVSVSPGQTARITCSGDNLPKYYAHWYQQKPGQAPVVVIFYDVNRPSGIPERFSGSNSGNTATLTISGTQAMDEADYYCQAWWSSTPVFGGGTKLTVLGQPKAAPSVTLFPPSSEELQANKATLVCLISDFYPGAVTVAWKADSSPVKAGVETTTPSKQSNNKYAASSYLSLTPEQWKSHRSYSCQVTHEGSTVEKTVAPTECS
notes: Expressed in HEK293 6E cells; also called Parent IgG; WT antibody

kon: 1.9e+06 M⁻¹ s⁻¹
B2: IgG-linker1 (protease-regulated anti-TFPI IgG, undigested) (antibody)
light: SYELTQPPSVSVSPGQTARITCSGDNLPKYYAHWYQQKPGQAPVVVIFYDVNRPSGIPERFSGSNSGNTATLTISGTQAMDEADYYCQAWWSSTPVFGGGTKLTVLGGGGSLVPRGSGGGGSGQPKAAPSVTLFPPSSEELQANKATLVCLISDFYPGAVTVAWKADSSPVKAGVETTTPSKQSNNKYAASSYLSLTPEQWKSHRSYSCQVTHEGSTVEKTVAPTECS
heavy: EVQLVESGGGLVQPGGSLRLSCAASGFTFSSYGMDWVRQAPGKGLEWVSSIRGSRGSTYYADSVKGRFTISRDNSKNTLYLQMNSLRAEDTAVYYCARLYRYWFDYWGQGTLVTVSSASGGGGSLVPRGSGGGGSTKGPSVFPLAPCSRSTSESTAALGCLVKDYFPEPVTVSWNSGALTSGVHTFPAVLQSSGLYSLSSVVTVPSSNFGTQTYTCNVDHKPSNTKVDKTVERKCCVECPPCPAPPVAGPSVFLFPPKPKDTLMISRTPEVTCVVVDVSHEDPEVQFNWYVDGVEVHNAKTKPREEQFNSTFRVVSVLTVVHQDWLNGKEYKCKVSNKGLPAPIEKTISKTKGQPREPQVYTLPPSREEMTKNQVSLTCLVKGFYPSDIAVEWESNGQPENNYKTTPPMLDSDGSFFLYSKLTVDKSRWQQGNVFSCSVMHEALHNHYTQKSLSLSPG
notes: Expressed in HEK293 6E cells; also called IgG2-linker1
